Test results as given in patent publication US20150132821, “Systems and Methods for Improving Nuclease Specificity and Activity” (Georgia Tech Research Corporation, published 2015).

Experiments:
[1] = tested on: S-11 NK-TALEN (synthetic); experiment: cell_activity; conditions: monomer SSA assay
[2] = tested on: S-23 NK-TALEN (synthetic); experiment: cell_activity; conditions: monomer SSA assay
[3] = tested on: S-36 NK-TALEN (synthetic); experiment: cell_activity; conditions: monomer SSA assay
[4] = tested on: S-34 NK-TALEN (synthetic); experiment: cell_activity; conditions: monomer SSA assay
[5] = tested on: S-32 NK-TALEN (synthetic); experiment: cell_activity; conditions: monomer SSA assay
[6] = tested on: S-30 NK-TALEN (synthetic); experiment: cell_activity; conditions: monomer SSA assay
[7] = tested on: S-28 NK-TALEN (synthetic); experiment: cell_activity; conditions: monomer SSA assay
[8] = tested on: S-26 NK-TALEN (synthetic); experiment: cell_activity; conditions: monomer SSA assay
[9] = tested on: S-40 NK-TALEN (synthetic); experiment: cell_activity; conditions: monomer SSA assay
[10] = tested on: S-41 NK-TALEN (synthetic); experiment: cell_activity; conditions: monomer SSA assay
[11] = tested on: S-03 NK-TALEN (synthetic); experiment: cell_activity; conditions: monomer SSA assay
[12] = tested on: S-04 NK-TALEN (synthetic); experiment: cell_activity; conditions: monomer SSA assay
[13] = tested on: S-08 NK-TALEN (synthetic); experiment: cell_activity; conditions: monomer SSA assay
[14] = tested on: S-06 NK-TALEN (synthetic); experiment: cell_activity; conditions: monomer SSA assay
[15] = tested on: S-24 NK-TALEN (synthetic); experiment: cell_activity; conditions: monomer SSA assay
[16] = tested on: S-22 NK-TALEN (synthetic); experiment: cell_activity; conditions: monomer SSA assay
[17] = tested on: S-15 NK-TALEN (synthetic); experiment: cell_activity; conditions: monomer SSA assay
[18] = tested on: S-38 NK-TALEN (synthetic); experiment: cell_activity; conditions: monomer SSA assay
[19] = tested on: S-25 NK-TALEN (synthetic); experiment: cell_activity; conditions: monomer SSA assay
[20] = tested on: S-16 NK-TALEN (synthetic); experiment: cell_activity; conditions: monomer SSA assay
[21] = tested on: S-17 NK-TALEN (synthetic); experiment: cell_activity; conditions: monomer SSA assay
[22] = tested on: S-18 NK-TALEN (synthetic); experiment: cell_activity; conditions: monomer SSA assay
[23] = tested on: S-19 NK-TALEN (synthetic); experiment: cell_activity; conditions: monomer SSA assay
[24] = tested on: S-20 NK-TALEN (synthetic); experiment: cell_activity; conditions: monomer SSA assay
[25] = tested on: S-21 NK-TALEN (synthetic); experiment: cell_activity; conditions: monomer SSA assay
[26] = tested on: S-13 NK-TALEN (synthetic); experiment: cell_activity; conditions: monomer SSA assay
[27] = tested on: S-09 NK-TALEN (synthetic); experiment: cell_activity; conditions: monomer SSA assay
[28] = tested on: S-37 NK-TALEN (synthetic); experiment: cell_activity; conditions: monomer SSA assay
[29] = tested on: S-35 NK-TALEN (synthetic); experiment: cell_activity; conditions: monomer SSA assay
[30] = tested on: S-33 NK-TALEN (synthetic); experiment: cell_activity; conditions: monomer SSA assay
[31] = tested on: S-31 NK-TALEN (synthetic); experiment: cell_activity; conditions: monomer SSA assay
[32] = tested on: S-29 NK-TALEN (synthetic); experiment: cell_activity; conditions: monomer SSA assay
[33] = tested on: S-27 NK-TALEN (synthetic); experiment: cell_activity; conditions: monomer SSA assay
[34] = tested on: S-42 NK-TALEN (synthetic); experiment: cell_activity; conditions: monomer SSA assay
[35] = tested on: S-43 NK-TALEN (synthetic); experiment: cell_activity; conditions: monomer SSA assay
[36] = tested on: S-44 NK-TALEN (synthetic); experiment: cell_activity; conditions: monomer SSA assay
[37] = tested on: S-10 NK-TALEN (synthetic); experiment: cell_activity; conditions: monomer SSA assay
[38] = tested on: S-39 NK-TALEN (synthetic); experiment: cell_activity; conditions: monomer SSA assay
[39] = tested on: S-12 NK-TALEN (synthetic); experiment: cell_activity; conditions: monomer SSA assay
S-05 (S5) NK-TALEN = target: T1, S-05 (S5) NK-TALEN (synthetic); experiment: cell_activity; monomer SSA assay; conditions: tags: 3xFLAG, NLS, FokI
T1 chain: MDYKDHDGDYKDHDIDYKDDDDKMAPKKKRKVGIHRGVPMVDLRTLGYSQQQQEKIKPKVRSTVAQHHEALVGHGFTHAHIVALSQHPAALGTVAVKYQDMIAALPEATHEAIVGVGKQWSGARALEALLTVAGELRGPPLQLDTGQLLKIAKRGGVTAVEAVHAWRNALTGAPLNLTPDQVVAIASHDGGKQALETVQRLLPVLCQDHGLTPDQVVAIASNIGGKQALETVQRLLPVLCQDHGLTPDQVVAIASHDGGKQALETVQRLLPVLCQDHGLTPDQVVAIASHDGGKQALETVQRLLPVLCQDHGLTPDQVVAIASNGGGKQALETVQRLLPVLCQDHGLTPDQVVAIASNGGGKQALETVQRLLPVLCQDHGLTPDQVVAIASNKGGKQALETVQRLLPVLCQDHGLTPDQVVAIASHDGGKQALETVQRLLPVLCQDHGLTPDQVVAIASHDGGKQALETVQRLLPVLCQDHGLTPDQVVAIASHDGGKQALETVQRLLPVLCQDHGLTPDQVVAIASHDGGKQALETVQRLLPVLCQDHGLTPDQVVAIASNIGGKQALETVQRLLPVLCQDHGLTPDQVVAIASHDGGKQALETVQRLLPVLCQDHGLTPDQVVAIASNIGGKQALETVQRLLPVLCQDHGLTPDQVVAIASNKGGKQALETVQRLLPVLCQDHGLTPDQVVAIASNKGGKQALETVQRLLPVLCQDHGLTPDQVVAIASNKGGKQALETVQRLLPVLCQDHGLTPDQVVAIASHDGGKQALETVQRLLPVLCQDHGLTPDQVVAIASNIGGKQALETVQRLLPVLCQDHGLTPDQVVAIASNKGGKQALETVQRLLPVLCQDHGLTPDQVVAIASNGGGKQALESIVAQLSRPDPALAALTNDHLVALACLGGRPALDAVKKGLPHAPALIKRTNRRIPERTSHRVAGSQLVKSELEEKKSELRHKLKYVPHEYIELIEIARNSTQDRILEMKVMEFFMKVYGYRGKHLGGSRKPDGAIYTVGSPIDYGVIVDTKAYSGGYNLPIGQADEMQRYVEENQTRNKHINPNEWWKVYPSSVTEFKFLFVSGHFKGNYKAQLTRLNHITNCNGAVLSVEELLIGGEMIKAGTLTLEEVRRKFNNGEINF
Procedure: HEK293T cells (ATCC) were cultured in Dulbecco's Modified Eagle Medium (Sigma) supplemented with 10% FBS and 2 mM L-Glutamine. Cells were seeded 80,000 per well of a 24-well plate. After 4 h, cells were transfected with 200 ng of the TALEN plasmid (or 100 ng of each TALEN for hetero-dimeric pairs) and 10 ng of the corresponding SSA reporter plasmid using calcium phosphate transfection. Three control transfections were included: 1) 200 ng of an empty TALEN backbone and 10 ng of an SSA reporter plasmid, 2) 200 ng of an empty TALEN backbone and 10 ng of a pEGFP plasmid, and 3) 100 ng of each GFP-ZFN and 10 ng of an SSA reporter plasmid. Cells were harvested 48 h after transfection. The percentages of pEGFP-transfected samples expressing GFP were determined using an Accuri C6 flow cytometer, as an indication of transfection efficiency. Genomic DNA was isolated using QuickExtract DNA extraction solution (Epicentre) as described20. Sample were PCR amplified for 35 cycles (95° C., 30 s; 60° C., 30 s; 72° C., 60 s) in a 50 μl reaction that contains 2 μl of the extracted DNA, 2.5 μl of each 10 μM target region amplification primer (SSA-Cell-F4, 5′-[…] (SEQ ID NO: 183); SSA-Cell-R4, 5′-[…] (SEQ ID NO: 184)), and 25 μl of GoTaq green master mix (Promega). PCR reactions were then separated on 2% agarose gels and the percentages of SSA-repaired products were quantified using ImageJ.

“ACAAGACAGGTTTAAGGAGACCAAT (double strand) [S-11 half-site]” showed an activity [1] of 1.5 % SSA.

With “AGACCACCAGCAGCCT (double strand) [S-23 half-site]” the activity [2] was 11.6 % SSA.

For “ATCAGAAACCCAAGAGT (double strand) [S-36 half-site]”, the activity [3] was 7.3 % SSA.

“ATCAGAAACCCAAGAGTCT (double strand) [S-34 half-site]” was tested, and the activity [4] was 14.8 % SSA.

In the case of “ATCAGAAACCCAAGAGTCTT (double strand) [S-32 half-site]”, the activity [5] is reported as 10.5 % SSA.

Molecule “ATCAGAAACCCAAGAGTCTTCT (double strand) [S-30 half-site]” has an activity [6] of 17.9 % SSA.

“ATCAGAAACCCAAGAGTCTTCTCT (double strand) [S-28 half-site]” gave an activity [7] of 15.3 % SSA.

Molecule “ATCAGAAACCCAAGAGTCTTCTCTGT (double strand) [S-26 half-site]” has an activity [8] of 11.7 % SSA.

“ATTGCTTACATTTGCTTCTGACACAACT (double strand) [S-40 half-site]” showed an activity [9] of 2.5 % SSA.

Work on “ATTGCTTACATTTGCTTCTGACACAACTGT (double strand) [S-41 half-site]” yielded an activity [10] of 3.1 % SSA.

Molecule “CAAACAGACACCATGGTGCACCT (double strand) [S-03 half-site]” has an activity [11] of 4.9 % SSA.

Molecule “CAAACAGACACCATGGTGCACCTGA (double strand) [S-04 half-site]” has an activity [12] of 2.5 % SSA.

“CACCTTGCCCCACAGGGCAGTA (double strand) [S-08 half-site]” was tested, and the activity [13] was 1.9 % SSA.

In the case of “CACCTTGCCCCACAGGGCAGTAA (double strand) [S-06 half-site]”, the activity [14] is reported as 5.3 % SSA.

“CCAAGGGTAGACCACCAGCAGCCT (double strand) [S-24 half-site]” gave an activity [15] of 1.3 % SSA.

“CCACGTTCACCTTGCCCCACAGGGCAGT (double strand) [S-22 half-site]” showed an activity [16] of 4.5 % SSA.

With “CCTGTGGAGAAGTCTGCCGT (double strand) [S-15 half-site]” the activity [17] was 3 % SSA.

For “CTATTGCTTACATTTGCTTCTGACACAACT (double strand) [S-38 half-site]”, the activity [18] was 3.7 % SSA.

“CTCCACAGGAGTCAGGTGCACCAT (double strand) [S-25 half-site]” showed an activity [19] of 11.1 % SSA.

Work on “CTGATAGGCACTGACTCT (double strand) [S-16 half-site]” yielded an activity [20] of 30.9 % SSA.

“CTGATAGGCACTGACTCTCT (double strand) [S-17 half-site]” was tested, and the activity [21] was 29.2 % SSA.

In the case of “CTGATAGGCACTGACTCTCTCT (double strand) [S-18 half-site]”, the activity [22] is reported as 26.2 % SSA.

For “CTGATAGGCACTGACTCTCTCTGCCT (double strand) [S-19 half-site]”, the activity [23] was 17.2 % SSA.

Work on “CTGATAGGCACTGACTCTCTCTGCCTAT (double strand) [S-20 half-site]” yielded an activity [24] of 16.6 % SSA.

“CTGATAGGCACTGACTCTCTCTGCCTATT (double strand) [S-21 half-site]” showed an activity [25] of 21.8 % SSA.

“CTTGGGTTTCTGATAGGCACTGACTCTCT (double strand) [S-13 half-site]” gave an activity [26] of 13 % SSA.

“GCCCCACAGGGCAGTAACGGCAGA (double strand) [S-09 half-site]” was tested, and the activity [27] was 6.2 % SSA.

In the case of “GCCTATCAGAAACCCAAGAGT (double strand) [S-37 half-site]”, the activity [28] is reported as 4.8 % SSA.

For “GCCTATCAGAAACCCAAGAGTCT (double strand) [S-35 half-site]”, the activity [29] was 8.1 % SSA.

Molecule “GCCTATCAGAAACCCAAGAGTCTT (double strand) [S-33 half-site]” has an activity [30] of 4.9 % SSA.

“GCCTATCAGAAACCCAAGAGTCTTCT (double strand) [S-31 half-site]” showed an activity [31] of 9.7 % SSA.

In the case of “GCCTATCAGAAACCCAAGAGTCTTCTCT (double strand) [S-29 half-site]”, the activity [32] is reported as 5.3 % SSA.

“GCCTATCAGAAACCCAAGAGTCTTCTCTGT (double strand) [S-27 half-site]” gave an activity [33] of 3.5 % SSA.

With “GCTTACATTTGCTTCTGACACAACT (double strand) [S-42 half-site]” the activity [34] was 4.3 % SSA.

“GCTTACATTTGCTTCTGACACAACTGT (double strand) [S-43 half-site]” showed an activity [35] of 4.1 % SSA.

Work on “GCTTACATTTGCTTCTGACACAACTGTGT (double strand) [S-44 half-site]” yielded an activity [36] of 3.2 % SSA.

With “GCTTACATTTGCTTCTGACACAACTGTGTT (double strand) [S-10 half-site]” the activity [37] was 8.4 % SSA.

With “GGGTTTCTGATAGGCACTGACTCTCTCT (double strand) [S-39 half-site]” the activity [38] was 5 % SSA.

“TGCCCCACAGGGCAGT (double strand) [S-12 half-site]” was tested, and the activity [39] was 11 % SSA.

B1: S-05 half-site (dsDNA)
DNA 1: CACCTTGCCCCACAGGGCAGT
DNA 2: ACTGCCCTGTGGGGCAAGGTG
B1 gave an activity (S-05 (S5) NK-TALEN) of 6.1 % SSA.
